The text below walks through data of the supplement of paper PMC12042874.

± gives the uncertainty stated by the source.

This data set can be described thus: amyloid nucleation score (Sup35N fusion, yeast selection) (log enrichment); library NNK3; higher = more nucleation; inactive = no reads after selection. The gist of the method:
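Psi-negative yeast expressed Sup35N fused to peptides of 20 random codons. They were induced 24 hours with 100 μM copper sulfate, grown 7 days at 30°C without adenine and uracil, and their plasmid inserts from input and output were Illumina-sequenced. The nucleation score is the DiMSum log enrichment of output over input reads, centred on the mode score of non-aggregating sequences. Sequences with under 100 input reads were excluded.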
The substance RVCDMVNTASWAIICSCLHL had an amyloid nucleation score of 2.05 ± 0.068. IYGSASNYMFILGIDRSRWA displayed an amyloid nucleation score of 1.14 ± 0.15. The same measure for VYCLAECYRIMRYAPFQVV: “inactive”.

Turning to VFDDY, the amyloid nucleation score result was “inactive”. The same measure for SSWDGLKRL: “inactive”; for LRVLAP: 0.815 ± 0.16. Then ARLFKGYSVVLCLCVSHR, with “inactive”. Then SLVSYRLWIYDLWMTWL, with “inactive”. SCGKGRYWVLNAMINPICKQ: the amyloid nucleation score is 1.14 ± 0.096. Then PGSGIHNWMNCYRSLKE, with “inactive”; and FLVVVSF, with “inactive”; and FAQLISYHSMLTCCKMTM, with 1.54 ± 0.096. Then SSLKWYTHPAMCYAHTWSIT, with “inactive”. As for DVSWRTPYTIKNYGSFFLIK, the amyloid nucleation score result was “inactive”. The same measure for NEICEHTSVVLLR: “inactive”. With DIFTPILMLCWV, the amyloid nucleation score entry was “inactive”. For the substance DWSPLAGRRMTSAVDGVSMD, the amyloid nucleation score result is “inactive”. The same measure for FYFGTG: “inactive”.

Take CGGIAFRNFLMNSGMPLEWK: the amyloid nucleation score entry was “inactive”. Then TIGDACFVGKEAWAFANWEY, with “inactive”; and LLSDICFCYYAREIRNSGCS, with “inactive”. For the substance NDQAYMFYIGVYTTLCIGLK, the amyloid nucleation score entry was “inactive”.

MSLRSSRHTPVDSQISSMEM: the amyloid nucleation score entry is “inactive”.

FYCGFAMGFILCCQNYTFVT returned an amyloid nucleation score of 2.63 ± 0.076. The same measure for KRFVFPLLIR: “inactive”; for ICWKRCHG: “inactive”. Consider ADNTDMKMTEVGTHHNGNQN, for which the amyloid nucleation score result is “inactive”.

For the substance IERLDNSIVNVMWILSGCKA, the amyloid nucleation score result is “inactive”. The same measure for SAGACSV: “inactive”; for DAISVLCFLLKSFRWSTFRG: “inactive”.

On to LYHTLKTHVKIFPCHSTDAP, for which the amyloid nucleation score result is “inactive”. Turning to CRFFSGFLRPRSNVGGNRYS, the amyloid nucleation score result is “inactive”. For WLQISIEKTTKFPSKMNH, the amyloid nucleation score was found to be 1.58 ± 0.11. For the substance YNNCYRCEN, the amyloid nucleation score result was “inactive”.

GVSYMNCTHWTL: the amyloid nucleation score result is “inactive”. In the case of SVESQGLWGCCILSKR, the amyloid nucleation score turned out to be 2.7 ± 0.06. The same measure for SWYAKGFI: “inactive”; for LLRTL: “inactive”; for ILHFRETLTRINNLEA: “inactive”. As to WEFAGVVYEWGVWKSVSGYG, the amyloid nucleation score amounted to 0.336 ± 0.3. Regarding LLKLNS, the amyloid nucleation score result was “inactive”. On to DWRMAYVSVC, for which the amyloid nucleation score result is “inactive”.

For FLNTSPYCGTL, the amyloid nucleation score result is “inactive”. The same measure for IAEGFNTVGDLWNIGCCDSG: 0.154 ± 0.33; for ANPFFSLDK: “inactive”; for LQHWPRTFWMGSRYAYLFSL: “inactive”. The same measure for VNNKIVVWTIMSSNDERLPS: 1.54 ± 0.082.

In the case of LVEMKALRTD, the amyloid nucleation score entry is “inactive”. With PPKGKSWMLIVVNRLGEDEQ, the amyloid nucleation score result was “inactive”. In the case of VLLNLSSFMLSTFTLRMS, the amyloid nucleation score result was “inactive”. For VSNDLWATVYHWGL, the amyloid nucleation score result is “inactive”. Then VLKARMY, with “inactive”. As to LYLVMSYV, the amyloid nucleation score result was “inactive”. Then SRQARCKPCVSCWDRCMWMI, with “inactive”; and YLNRLCLNTNISRAVRCY, with “inactive”; and VIRDQQIIVKCCNLVSICGI, with 1.32 ± 0.17.

On to SITQSRLTP, for which the amyloid nucleation score is -0.196 ± 0.36.

With HLFGDFDKWVDKLWRYNRVD, the amyloid nucleation score is 0.985 ± 0.21.

VIVVREYVVWKNISMIVDYL: the amyloid nucleation score is -0.019 ± 0.24.

Take WYYCRLRACVRH: the amyloid nucleation score result was “inactive”.

For the substance FFFRYILKGMPVLFAVCRHC, the amyloid nucleation score result was “inactive”.

Consider SCRIFDPMEPTTLCENSWSL, for which the amyloid nucleation score entry was “inactive”.

Consider WNSLMAK, for which the amyloid nucleation score result is “inactive”.

On to AISGIPESIVMLSYFRL, for which the amyloid nucleation score result is “inactive”. Then IQIVSWQSAL, with “inactive”; and SMACCGLSIAATNAPKVPKV, with 0.498 ± 0.34. YLVWVFPEWPC came in with an amyloid nucleation score of 1.39 ± 0.13.

Turning to GSRCCNSAFNKECLSITEHS, the amyloid nucleation score was -0.485 ± 0.8.

Turning to LSGLFARRNQWWKYGLRRN, the amyloid nucleation score entry was “inactive”.

For the substance SSLITFAPIPSLYWDCFSRF, the amyloid nucleation score entry is “inactive”. Then KFWLKVHFYEHKWSWVMFEC, with “inactive”.

On to VFQHGWGEVLRSRQGLLGSR, for which the amyloid nucleation score entry is “inactive”. For the substance CVRYWKLGVVLRDG, the amyloid nucleation score entry was “inactive”. The same measure for NKCSVMCHLDGVTWVPERAV: “inactive”; for TCAVKMVRSWCNIPINSFQA: “inactive”. Regarding MGYCLGNDGSIKALFLVVNV, the amyloid nucleation score entry is “inactive”.

As for DYVCYLILVLEASRRNCRSS, the amyloid nucleation score entry is “inactive”. The same measure for RTHGCCSVCNTEFADGVVLS: “inactive”; for VRFNSYAFYITIVGGKHTTT: 2.38 ± 0.059. Then GYSNFDCLSSLNISEYGPAA, with “inactive”. Then WPGLRCDSGQDKRNMF, with -0.039 ± 1. VNYHFYKFYGPWRVWNRTRA yielded an amyloid nucleation score of 1.95 ± 0.086.

Take YYFFRKYEENFSGSNTGLVI: the amyloid nucleation score result was “inactive”. As to SGTPVPAYSTSWQQNWVKQC, the amyloid nucleation score entry is “inactive”. Regarding ISAGFAGNN, the amyloid nucleation score entry is “inactive”. Then KLGIRPDRISVTWCLSNTTV, with -0.473 ± 1.3; and KSYLAVVSYFGFTKKADPTG, with “inactive”; and MTPFIKNS, with “inactive”. Then NTTCYIVRVMYVPHG, with “inactive”.

CLFWMTWDVSRDS: the amyloid nucleation score result is “inactive”.

Turning to DRNEVLDQNVVDSEISTVLP, the amyloid nucleation score result is “inactive”. Then TIIFRSYVELVDELWLDAAL, with “inactive”; and GHSEYLA, with “inactive”; and WKATNNAASVFGDLYGYYAN, with “inactive”. For MSKHRMFLSGRLFRANEVRP, the amyloid nucleation score entry is “inactive”. The same measure for FDLSLDSMKFEAFYFVVRLV: “inactive”. The same measure for FHYVCFTFDSKFVGKLSYGS: 1.61 ± 0.1; for SLLLTSWESVYIMRGLDRTI: 0.086 ± 0.42.

As for DVVSLGIMQKGSWSGCML, the amyloid nucleation score result was “inactive”. As for YYWCFSF, the amyloid nucleation score was 2.23 ± 0.06. Then CCFVRWGFGC, with 1.38 ± 0.091. The same measure for IRGKYRLVVRDSLNVTPYRV: “inactive”.

Consider AIIDYFMM, for which the amyloid nucleation score entry was “inactive”. Take GYAADMIFYQGHHMKISMFR: the amyloid nucleation score amounted to 1.08 ± 0.15. Then QCDVCVCCVARAEAVRRILG, with 2.33 ± 0.075; and VKTSQRSVTL, with “inactive”. On to RKNVRMMA, for which the amyloid nucleation score entry is “inactive”. Then ELGIII, with “inactive”; and SASKKLTAFALVVFLRV, with “inactive”. The same measure for IVKRFWLNGSFTFSFCNGNG: 2.09 ± 0.09; for LEFSYPCRWA: “inactive”; for LNFDNRNFFGDMSAESATPF: “inactive”. As to LYVWLAWYWVYPINHALVVC, the amyloid nucleation score result is “inactive”.

Turning to YDMSDMNCRRIW, the amyloid nucleation score result is “inactive”. Then LCVYTYTSTHAVFFIVFDSR, with “inactive”. For LQSGDRIVTDSYVRAYTMHV, the amyloid nucleation score entry is “inactive”.

Take CTTVDVGALVDGESNHCISL: the amyloid nucleation score entry was “inactive”. Then TKCLLFFNRGCR, with 1.1 ± 0.14. Then YLCLWCVEQLMYCRPRRLEE, with “inactive”. As for CLHLWGVFKFFDVYWIMLMG, the amyloid nucleation score entry is “inactive”. The same measure for NTYLVWIPRSFGQGKSNCLK: “inactive”. The same measure for DMHGRSNNLW: “inactive”; for IEWACVKQMYSHRALLRERR: “inactive”. In the case of ILSVSLVVHRKRTTWISNYH, the amyloid nucleation score result is “inactive”. Then RQIVKPASQVILCRCLCTGA, with 1.04 ± 0.1; and IRVRTYSTKLPSLGH, with “inactive”; and SCQNRWYSSFHKLAETRSYW, with “inactive”. In the case of YSFAVPSNLLLLK, the amyloid nucleation score is -0.302 ± 0.52. The same measure for SIRTWRVPRDCSAYFNGLSW: “inactive”; for TKVFS: “inactive”. Turning to DQRLFFGHGGFDAVSW, the amyloid nucleation score entry is “inactive”. Then TDMIQYKHRLYTIILSNYAR, with “inactive”; and RQVSPTVVCSIILSLPFDPC, with 0.396 ± 0.22.
